The values that follow are results of earlier work, collected in publication PMC3144249.

pKd: −log10 of the molar value.

Data set [1] concerns the target arrestin-1 (Mus musculus) (UniProt P20443).
In data set [2] the target is arrestin-1 dimer (Mus musculus) (UniProt P20443).

Usually pKd stands for −log10 of the Kd, conventionally taken in molar units. Take arrestin-1 (from UniProt P20443): the pKd in data set [1] is 4.24.
Turning to arrestin-1 dimer (from UniProt P20443), in data set [2], the pKd is 4.20.
